Measured values: patent US20260242478A1 (published 2026)

B1: Phage-3964 (peptide)
peptide: ITRMCTPSWMCMSF
notes: tested as crude clonal phage supernatant
B2: Phage-3965 (peptide)
peptide: MATMCVPQWMCAGF
notes: as for B1
B3: Phage-3963 (peptide)
peptide: ISAECRPPWMCIGF
notes: as for B1
B4: Phage-3966 (peptide)
peptide: GSVFCIPTWMCEQS
notes: as for B1
B5: Phage-3962 (peptide)
peptide: FDGWCVPAWMCYPF
notes: as for B1

These binders were tested against T1, Anti-PSMA Fab (biotinylated (site not stated)) (assay: clonal phage ELISA on captured biotinylated PSMA Fab, anti-M13 HRP detection).
T1 construct: Biotinylated PSMA Fab captured on neutravidin plates in the phage ELISA; also called 006 PSMA Fab

Binder	Phage binding ELISA signal, Anti-PSMA Fab
STPYCVPDWMCAGF [Phage-3988]	0.683
VVVQCIPEWMCNGF [Phage-3981]	0.729
LLIVCKPPWMCAGS [Phage-3990]	0.666
MTDRCKPEWMCFGF [Phage-3989]	0.677
VENLCRPSWMCEGF [Phage-3985]	0.696
IAVKCMPAWMCVGI [Phage-3993]	0.632
YERMCSPEWMCWDF [Phage-3983]	0.704
SYQLCKPEWMCHGW [Phage-3982]	0.715
EWPICRPSWMCDDF [Phage-3994]	0.63
HVQRCVPQWMCVGF [Phage-3987]	0.686
SVMNCVPLRMCEGF [Phage-3991]	0.644
KHILCEPVWMCVGF [Phage-3984]	0.697
VFKMCVPMWMCQVS [Phage-3992]	0.635
NGPMCVPQWMCDGT [Phage-3986]	0.691

These binders were tested against T2, anti-CD28 Fab (SEQ ID NOs: 696, 697) (assay: phage ELISA; biotinylated anti-CD28 Fab on neutravidin plate, clonal phage supernatant, anti-M13 HRP detection;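 note: crude supernatants of single phage clones picked after panning were screened for binding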).
T2 construct: In the phage ELISA the Fab was biotinylated and captured on neutravidin coated plates
T2 sequence (VH, as listed by the source, chain 1 of 2): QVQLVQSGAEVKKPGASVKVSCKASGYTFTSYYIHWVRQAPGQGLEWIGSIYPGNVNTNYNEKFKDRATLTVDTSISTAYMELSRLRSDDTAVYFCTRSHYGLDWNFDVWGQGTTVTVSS
T2 sequence (VL, as listed by the source, chain 2 of 2): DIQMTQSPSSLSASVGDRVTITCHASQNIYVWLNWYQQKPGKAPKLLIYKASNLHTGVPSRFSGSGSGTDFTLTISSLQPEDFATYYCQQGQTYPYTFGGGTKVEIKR

Binder	Phage binding ELISA, Anti-CD28 Fab (SEQ ID NOs: 696, 697) signal
YCAGHTEEHYVKCM (also called Peptide-96) [Phage-475]	0.62
YCAGHMPQYEVKCL (also called Peptide-95) [Phage-474]	0.22
DCPWLSGFSRPLLC (also called Peptide-93) [Phage-472]	1.27
YCEGHSPEYILKCL [Phage-478]	1.75
YCEGHRPEYILKCL [Phage-479]	1.27
YCEGHEGIYFWKCL [Phage-480]	2.07
YCMGHSHEHIWKCL (also called Peptide-97) [Phage-476]	0.87
YCAGHSHEYLAKCE (also called Peptide-98) [Phage-477]	0.86
YCEGHLPEYIEKCL (also called Peptide-120) [Phage-481]	2.06
YCEGHAPEYIAKCL [Phage-482]	2.15
YCAGMSTIQLWLKC (also called Peptide-94) [Phage-473]	2.16

These binders were tested against T3, PSMA Fab (biotinylated (site not stated)) (assay: clonal phage ELISA on biotinylated PSMA Fab captured on neutravidin, blocking buffer alone, anti-M13 HRP detection;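 note: clonal phage were tested as crude supernatants, and the signal reflects phage still bound to the wells after washing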).
T3 construct: Biotinylated PSMA Fab captured on neutravidin plates for the clonal phage ELISA; also called Anti-PSMA Fab; 006 PSMA Fab

Binder	Phage binding ELISA signal, Anti-PSMA Fab
EIGACVPDWMCRGF [Phage-3968]	0.809
EAKWCTPQWMCGGF [Phage-3975]	0.756
PAQICMPAWMCHGF [Phage-3976]	0.754
LSVECIPVWMCNGF [Phage-3979]	0.732
VQTRCVPAWMCDGF [Phage-3971]	0.782
QQVRCVPDWMCSGF [Phage-3974]	0.762
QMSMCKPAWMCTGL [Phage-3973]	0.767
DARLCTPLWMCTGF [Phage-3972]	0.781
GFRTCVPSWMCTGF [Phage-3978]	0.734
DARMCIPMWMCQAF [Phage-3977]	0.742
EYRECVPDWMCSGF [Phage-3980]	0.731
STLLCTPEWMCFGM [Phage-3969]	0.789
SYMRCEPEWMCSGL [Phage-3970]	0.786
GGVMCRPMWMCAGF [Phage-3967]	0.81

Each binder was assayed against T2, anti-CD28 Fab (SEQ ID NOs: 696, 697) (assay: phage ELISA; biotinylated anti-CD28 Fab on neutravidin plate, wells pre-incubated with CD28 antigen as competitor, anti-M13 HRP detection).
Experimental: After panning, phage infected bacteria were plated out and colonies picked into 96 well blocks. Clonal phage was then amplified and separated from bacterial cells via centrifugation.
Clonal phage were harvested as crude supematants and screened via standard ELISAs. […] Prior to the addition of clonal phage, wells were incubated with blocking buffer and CD28 antigen or blocking buffer alone. Without washing or aspirating, clonal phage supematants were then added to the wells and incubated for a short time. Wells were then washed followed by detection of bound phage using a horse radish conjugated anti-M13 antibody. Clonal phage of interest were then sent for sequence analysis.

Binder	Phage binding ELISA, Anti-CD28 Fab signal in the presence of CD28
YCAGHTEEHYVKCM (also called Peptide-96) [Phage-475]	0.07
YCAGHMPQYEVKCL (also called Peptide-95) [Phage-474]	0.06
DCPWLSGFSRPLLC (also called Peptide-93) [Phage-472]	0.07
YCEGHSPEYILKCL [Phage-478]	0.06
YCEGHRPEYILKCL [Phage-479]	0.06
YCEGHEGIYFWKCL [Phage-480]	0.06
YCMGHSHEHIWKCL (also called Peptide-97) [Phage-476]	0.07
YCAGHSHEYLAKCE (also called Peptide-98) [Phage-477]	0.06
YCEGHLPEYIEKCL (also called Peptide-120) [Phage-481]	0.08
YCEGHAPEYIAKCL [Phage-482]	0.09
YCAGMSTIQLWLKC (also called Peptide-94) [Phage-473]	0.09

What follows are binders tested against T3, PSMA Fab (assay: clonal phage ELISA on captured PSMA Fab pre-incubated with PSMA antigen as competitor, anti-M13 HRP detection;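 note: crude clonal phage supernatants tested by ELISA, wells first treated with blocking buffer plus PSMA antigen, bound phage read out via HRP-linked anti-M13 antibody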).
Experimental: (§1) Clonal phage were harvested as crude supernatants and screened via standard ELISAs. […] Prior to the addition of clonal phage. wells were incubated with blocking buffer and PSMA antigen or blocking buffer alone. Without washing or aspirating, clonal phage supernatants were then added to the wells and incubated for a short time. Wells were then washed followed by detection of bound phage using a horse radish conjugated anti-M13 antibody.

Binder	Phage binding ELISA signal, Anti-PSMA Fab in presence of PSMA antigen
EIGACVPDWMCRGF [Phage-3968]	0.0694
EAKWCTPQWMCGGF [Phage-3975]	0.0703
PAQICMPAWMCHGF [Phage-3976]	0.0646
LSVECIPVWMCNGF [Phage-3979]	0.0832
VQTRCVPAWMCDGF [Phage-3971]	0.0744
QQVRCVPDWMCSGF [Phage-3974]	0.0755
QMSMCKPAWMCTGL [Phage-3973]	0.0909
DARLCTPLWMCTGF [Phage-3972]	0.0622
GFRTCVPSWMCTGF [Phage-3978]	0.0906
DARMCIPMWMCQAF [Phage-3977]	0.0713
EYRECVPDWMCSGF [Phage-3980]	0.0722
STLLCTPEWMCFGM [Phage-3969]	0.0553
SYMRCEPEWMCSGL [Phage-3970]	0.121
GGVMCRPMWMCAGF [Phage-3967]	0.0836

What follows are binders tested against T4, Anti-PSMA Fab (biotinylated (site not stated)) (assay: clonal phage ELISA on plate-captured biotinylated PSMA Fab, wells pre-incubated with PSMA antigen as competitor).
T4 construct: Biotinylated PSMA Fab captured on neutravidin coated plates; also called 006 PSMA Fab

Binder	phage binding ELISA signal (Anti-PSMA Fab with PSMA)
B1	0.078
B2	0.141
B3	0.0626
B4	0.07
B5	0.0796

These binders were tested against T1, Anti-PSMA Fab (assay: clonal phage ELISA on captured biotinylated PSMA Fab pre-incubated with PSMA antigen as competitor, anti-M13 HRP detection).
Experimental: as §1

Binder	Phage binding ELISA signal, Anti-PSMA Fab in presence of PSMA antigen
STPYCVPDWMCAGF [Phage-3988]	0.0729
VVVQCIPEWMCNGF [Phage-3981]	0.0683
LLIVCKPPWMCAGS [Phage-3990]	0.0992
MTDRCKPEWMCFGF [Phage-3989]	0.142
VENLCRPSWMCEGF [Phage-3985]	0.112
IAVKCMPAWMCVGI [Phage-3993]	0.0897
YERMCSPEWMCWDF [Phage-3983]	0.0861
SYQLCKPEWMCHGW [Phage-3982]	0.0692
EWPICRPSWMCDDF [Phage-3994]	0.0604
HVQRCVPQWMCVGF [Phage-3987]	0.119
SVMNCVPLRMCEGF [Phage-3991]	0.0968
KHILCEPVWMCVGF [Phage-3984]	0.0708
VFKMCVPMWMCQVS [Phage-3992]	0.0687
NGPMCVPQWMCDGT [Phage-3986]	0.0558

The binders below were run against T4, Anti-PSMA Fab (assay: clonal phage ELISA on plate-captured biotinylated PSMA Fab, blocking buffer alone).
Experimental: as §1

Binder	Phage binding ELISA signal, Anti-PSMA Fab
B1	0.814
B2	0.814
B3	0.815
B4	0.813
B5	0.816
